Paper PMC4302597

Biological target: tubulin of PC12 cells (microtubule (MT) fraction, soluble tubulin (ST) fraction or cell lysate) (rat (endogenous in PC12)) (UniProt P68370)
Assay: co-IP; MT fraction of PC12 cells, untreated or treated with 100 ng/mL NGF for three days; 100 μL aliquots (~0.25–1 mg/mL) with anti-α tubulin or anti-Gβ for 1 h at 4°C, then protein A-sepharose overnight at 4°C; immunoblot for Gβ or tubulin

fold increase of co-immunoprecipitation in NGF-treated over untreated cells: 2 to 3 fold
Substance: βγ subunit of heterotrimeric G proteins (Gβγ), endogenous in PC12 cells (from UniProt P54311 1-340) (complex)
